Reference: article PMC6774519

What was measured:
[1] = tested on: #B1-3 anti-m6A monoclonal antibody (guinea pig (Hartley)); assay: UV crosslinking, IP and RT truncation (footprinting); settings: 41 clones sequenced; m6A at position 14; SPR: Biacor T100, HBS-EP+ buffer, 30 ul/min, biotin-RNA at 20 RU on SA chip, antibody 0-27 nM, 1:1 fit; ELISA: PBS, 3 h, room temperature; UV-crosslink IP: …
[2] = tested on: #B1-1 anti-m6A monoclonal antibody (guinea pig (Hartley)); assay: SPR; settings: m6A at position 6; SPR: Biacor T100, HBS-EP+ buffer, 30 ul/min, biotin-RNA at 20 RU on SA chip, antibody 0-27 nM, 1:1 fit; ELISA: PBS, 3 h, room temperature; UV-crosslink IP: …
[3] = tested on: #B1-3 anti-m6A monoclonal antibody (guinea pig (Hartley)); assay: SPR; settings: m6A at position 6; SPR: Biacor T100, HBS-EP+ buffer, 30 ul/min, biotin-RNA at 20 RU on SA chip, antibody 0-27 nM, 1:1 fit; ELISA: PBS, 3 h, room temperature; UV-crosslink IP: …
[4] = tested on: #B1-3 anti-m6A monoclonal antibody (guinea pig (Hartley)); assay: pull-down (protein A IP); settings: m6A at position 6; SPR: Biacor T100, HBS-EP+ buffer, 30 ul/min, biotin-RNA at 20 RU on SA chip, antibody 0-27 nM, 1:1 fit; ELISA: PBS, 3 h, room temperature; UV-crosslink IP: …

With “AUCAUCUUUCGGGACUGACCUGAAAUGAACCCUA [Snord-oligo (Snord2, 34 nt)]” the binding signal (% RT truncations at m6A) [1] was 68.
With NNNGGACNNN [m6A-oligo] the Kd [2] was 2.5 nM, the Kd [3] was 6.5 nM and the binding signal (% immunoprecipitated) [4] was 35.
